This series in a line: total protein half-life in vivo (active degradation + dilution); higher = more stable protein.
[1] abbreviates: E. coli NCM3722 delta-clpP delta-lon delta-hslV, growth: N-lim chemostat, doubling time 6 h.
The mark [2] stands for this setting: E. coli NCM3722 delta-hslV, growth: N-lim chemostat, doubling time 6 h.
[3] abbreviates: E. coli NCM3722 delta-lon, growth: N-lim chemostat, doubling time 6 h.
[4] abbreviates: E. coli NCM3722 delta-smpB, growth: N-lim chemostat, doubling time 6 h.
[5] abbreviates: wild type E. coli NCM3722, growth: C-lim chemostat, doubling time 3 h.
Setting [6] is: wild type E. coli NCM3722, growth: C-lim chemostat, doubling time 6 h.
The mark [7] stands for this setting: wild type E. coli NCM3722, growth: C-lim chemostat, doubling time 12 h.
Setting [8] is: wild type E. coli NCM3722, growth: N-lim chemostat, doubling time 6 h.
The mark [9] stands for this setting: wild type E. coli NCM3722, growth: N-lim chemostat, doubling time 12 h.
Setting [10] is: wild type E. coli NCM3722, growth: P-lim chemostat, doubling time 6 h.
[11] abbreviates: wild type E. coli NCM3722, growth: P-lim chemostat, doubling time 12 h.
Where [12] appears, read: E. coli NCM3722 delta-clpP, growth: N-lim chemostat, doubling time 6 h.

This is an account of results in the supplement of paper PMC11246515.

± gives the standard deviation of the averaged measurements.

With “MSQLVYFSSSSENTQRFIERLGLPAVRIPLNERERIQVDEPYILIVPSYGGGGTAGAVPRQVIRFLNDEHNRALLRGVIASGNRNFGEAYGRAGDVIARKCGVPWLYRFELMGTQSDIENVRKGVTEFWQRQPQNA [P0A772]”, the “total protein half-life in vivo” value under setting [1] was 4.46 ± 0.33 h.

On to “MNYELLTTENAPVKMWTKGVPVEADARQQLINTAKMPFIFKHIAVMPDVHLGKGSTIGSVIPTKGAIIPAAVGVDIGCGMNALRTALTAEDLPENLAELRQAIETAVPHGRTTGRCKRDKGAWENPPVNVDAKWAELEAGYQWLTQKYPRFLNTNNYKHLGTLGTGNHFIEICLDESDQVWIMLHSGSRGIGNAIGTYFIDLAQKEMQETLETLPSRDLAYFMEGTEYFDDYLKAVAWAQLFASLNRDAMMENVVTALQSITQKTVRQPQTLAMEEINCHHNYVQKEQHFGEEIYVTRKGAVSARAGQYGIIPGSMGAKSFIVRGLGNEESFCSCSHGAGRVMSRTKAKKLFSVEDQIRATAHVECRKDAEVIDEIPMAYKDIDAVMAAQSDLVEVIYTLRQVVCVKG”, for which the “total protein half-life in vivo” value runs as follows: under setting [1], 5.37 ± 0.74 h; under setting [2], 1.46 ± 0.41 h; under setting [3], 2.04 ± 0.29 h; under setting [4], 1.46 ± 0.066 h; under setting [5], 1.6 ± 0.19 h; under setting [6], 2.78 ± 0.54 h. For the same sequence, the “total protein half-life in vivo” value is, setting by setting: under setting [7], 3.19 ± 0.052 h; under setting [8], 1.73 h; under setting [9], 1.67 ± 0.49 h; under setting [10], 1.98 ± 0.61 h; under setting [11], 3.92 ± 0.64 h.

As to “MAENQSTVENAKEKLDRWLKDGITTPGGKLPSERELGELLGIKRMTLRQALLNLEAESKIFRKDRKGWFVTQPRFNYSPELSASFQRAAIEQGREPSWGFTEKNRTSDIPETLAPLIAVTPSTELYRITGWGALEGHKVFYHETYINPEVAPGFIEQLENHSFSAVWEKCYQKETVVKKLIFKPVRMPGDISKYLGGSAGMPAILIEKHRADQQGNIVQIDIEYWRFEAVDLIINL [P0ACM9]”, the “total protein half-life in vivo” value under setting [1] stood at 6.16 ± 0.15 h; the “total protein half-life in vivo” value under setting [12] was determined as 5.99 ± 0.32 h; the “total protein half-life in vivo” value under setting [2] was 5.13 ± 0.17 h; the “total protein half-life in vivo” value under setting [4] was 4.95 h; the “total protein half-life in vivo” value under setting [7] is 13.2 ± 3.2 h; the “total protein half-life in vivo” value under setting [8] stood at 5.84 ± 0.19 h. In addition, the “total protein half-life in vivo” value is, setting by setting: under setting [9], 9.06 ± 1 h; under setting [10], 5.01 ± 1.8 h; under setting [11], 9.28 h.

With “MPYKTKSDLPESVKHVLPSHAQDIYKEAFNSAWDQYKDKEDRRDDASREETAHKVAWAAVKHEYAKGDDDKWHKKS [P0AE63]”, the “total protein half-life in vivo” value under setting [1] came to 6.81 ± 0.52 h; the “total protein half-life in vivo” value under setting [12] worked out at 4.36 ± 0.59 h; the “total protein half-life in vivo” value under setting [3] is 5.1 ± 0.19 h; the “total protein half-life in vivo” value under setting [4] worked out at 5.01 ± 2.3 h; the “total protein half-life in vivo” value under setting [6] came out at 5.53 h; the “total protein half-life in vivo” value under setting [7] was found to be 6.09 h. Further, the “total protein half-life in vivo” value was found to be 3.3 ± 0.35 h under setting [8], 6.77 ± 0.7 h under setting [9], 4.41 h under setting [10] and 7.39 ± 1.7 h under setting [11].

Regarding “MMDNDNSLNKRPTFKRALRNISMTSIFITMMLIWLLLSVTSVLTLKQYAQKNLALTAATMTYSLEAAVVFADGPAATETLAALGQQGQFSTAEVRDKQQNILASWHYTRKDPGDTFSNFISHWLFPAPIIQPIRHNGETIGEVRLTARDSSISHFIWFSLAVLTGCILLASGIAITLTRHLHNGLVEALKNITDVVHDVRSNRNFSRRVSEERIAEFHRFALDFNSLLDEMEEWQLRLQAKNAQLLRTALHDPLTGLANRAAFRSGINTLMNNSDARKTSALLFLDGDNFKYINDTWGHATGDRVLIEIAKRLAEFGGLRHKAYRLGGDEFAMVLYDVQSESEVQQICSALTQIFNLPFDLHNGHQTTMTLSIGYAMTIEHASAEKLQELADHNMYQAKHQRAEKLVR”, the “total protein half-life in vivo” value runs as follows: under setting [1], 4.053 ± 0.0067 h; under setting [8], 0.877 h; under setting [10], 1.69 h.

With “MESLNQFVNSLAPKLSHWRRDFHHYAESGWVEFRTATLVAEELHQLGYSLALGREVVNESSRMGLPDEFTLQREFERARQQGALAQWIAAFEGGFTGIVATLDTGRPGPVMAFRVDMDALDLSEEQDVSHRPYRDGFASCNAGMMHACGHDGHTAIGLGLAHTLKQFESGLHGVIKLIFQPAEEGTRGARAMVDAGVVDDVDYFTAVHIGTGVPAGTVVCGSDNFMATTKFDAHFTGTAAHAGAKPEDGHNALLAAAQATLALHAIAPHSEGASRVNVGVMQAGSGRNVVPASALLKVETRGASDVINQYVFDRAQQAIQGAATMYGVGVETRLMGAATASSPSPQWVAWLQSQAAQVAGVNQAIERVEAPAGSEDATLMMARVQQHQGQASYVVFGTQLAAGHHNEKFDFDEQVLAIAVETLARTALNFPWTRGI”, the “total protein half-life in vivo” value under setting [1] was found to be 6.21 ± 1.1 h; the “total protein half-life in vivo” value under setting [12] came to 2.65 ± 0.05 h; the “total protein half-life in vivo” value under setting [2] was 3.12 ± 0.28 h; the “total protein half-life in vivo” value under setting [3] is 3.18 ± 0.22 h; the “total protein half-life in vivo” value under setting [4] turned out to be 2.86 ± 0.093 h; the “total protein half-life in vivo” value under setting [5] was determined as 1.71 ± 0.65 h. The “total protein half-life in vivo” value under setting [6] was found to be 5.22 h; the “total protein half-life in vivo” value under setting [7] turned out to be 5.67 ± 0.081 h; the “total protein half-life in vivo” value under setting [8] is 2.9 ± 0.053 h; the “total protein half-life in vivo” value under setting [9] was 4.45 ± 0.16 h; the “total protein half-life in vivo” value under setting [10] was 1.87 h; the “total protein half-life in vivo” value under setting [11] turned out to be 6.79 h.

For the sequence “MLDPNLLRNEPDAVAEKLARRGFKLDVDKLGALEERRKVLQVKTENLQAERNSRSKSIGQAKARGEDIEPLRLEVNKLGEELDAAKAELDALQAEIRDIALTIPNLPADEVPVGKDENDNVEVSRWGTPREFDFEVRDHVTLGEMHSGLDFAAAVKLTGSRFVVMKGQIARMHRALSQFMLDLHTEQHGYSENYVPYLVNQDTLYGTGQLPKFAGDLFHTRPLEEEADTSNYALIPTAEVPLTNLVRGEIIDEDDLPIKMTAHTPCFRSEAGSYGRDTRGLIRMHQFDKVEMVQIVRPEDSMAALEEMTGHAEKVLQLLGLPYRKIILCTGDMGFGACKTYDLEVWIPAQNTYREISSCSNVWDFQARRMQARCRSKSDKKTRLVHTLNGSGLAVGRTLVAVMENYQQADGRIEVPEVLRPYMNGLEYIG [P0A8L1]”, the “total protein half-life in vivo” value under setting [1] was 5.7 ± 0.32 h; the “total protein half-life in vivo” value under setting [12] amounted to 5.43 ± 0.54 h; the “total protein half-life in vivo” value under setting [2] was determined as 5.59 ± 0.06 h; the “total protein half-life in vivo” value under setting [3] worked out at 5.511 ± 0.051 h; the “total protein half-life in vivo” value under setting [4] came out at 5.16 ± 0.24 h; the “total protein half-life in vivo” value under setting [5] is 3.66 ± 0.21 h. In addition, the “total protein half-life in vivo” value runs as follows: under setting [6], 6.43 ± 0.77 h; under setting [7], 11.5 ± 0.57 h; under setting [8], 5.63 ± 0.29 h; under setting [9], 9.239 ± 0.058 h; under setting [10], 6.28 ± 0.27 h; under setting [11], 13.3 ± 1.1 h.
